Molecular target: EBV gB重组蛋白 (recombinant EB virus gB protein with C-terminal 6xHis tag) (EB病毒 (Epstein-Barr virus)) (UniProt P0C762)
Experiment: BLI, biotinylated gB on SA biosensor, control antibody in solution

Kd: 0.302 nM
Substance: 对照抗体AMMO5 (anti-EBV gB recombinant antibody, clone AMMO5)
